# According to patent US20250320305A1 (Hoffmann-La Roche, published 2025):
# Columns and labels:
# [1] = target: T1, human CD40 expressed on cells (human, UniProt P25942 21-277); assay: flow cytometry, Raji cells;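 note: cell binding of antibodies to Raji cells detected by flow cytometry using an Alexa488-labelled anti-human IgG secondary antibody, primary incubation 1 h at 4 °C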
# T1 construct: also called huCD40; Raji cells
# Protocol: CD40 positive cells (Raji cells) were detatched from the culture bottle using Trypsin and were counted using a Casy cell counter. After pelleting at 4° C., the cells were resuspended in FACS Buffer (2.5% FCS in PBS), adjusted to 2.0E+06 cells/mL, and dispensed to 96-well PP V-bottom-plates (25 μL/well=5.0E+04Zellen/well).
# The CD40 specific antibodies were adjusted to 20 μg/mL in FACS buffer, resulting in a final concentration of 10 μg/mL. 20 μl were added to 25 μl cell suspension and incubated for 1 h at 4° C. The cells were then washed twice in FACS buffer. After washing, the cells were resuspended in 50 μL FACS-buffer containing secondary antibody (<huIgG>-Alexa488, c=10 μg/mL) and incubated 1 h bei 4° C. The cells were then washed twice in FACS buffer and resuspended in 70 μl/well FACS buffer for measurement using a FACS Canto (BD, Pharmingen).
# [2] = target: T2, human CD40 extracellular domain with C-terminal His-AviTag (human, UniProt P25942 21-193); assay: SPR, antibody captured, CD40 ECD analyte;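 note: biacore SPR at 25 °C in PBS-T pH 7.4, CD40 ECD analyte from 300 nM in 1:3 series, 300 s association, up to 1200 s dissociation, double-referenced, Langmuir 1:1 fit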
# T2 construct: not shown: C-terminal His-AviTag
Binder,EC50 [1] [µg/mL],Kd [2] [nM],koff [2] [s⁻¹],kon [2] [M⁻¹ s⁻¹]
"P1AE0817, humanized anti-CD40 antibody VH1a/VL1a, huIgG1_LALA_PG (antibody, V domains shown) VH: QVQLVQSGAEVKKPGASVKVSCKASGYSFTGYYIHWVRQAPGQSLEWMGRVIPNAGGTSYNQKFKGRVTLTVDKSISTAYMELSRLRSDDTAVYYCAREGIYWWGQGTTVTVSS VL: DIVMTQTPLSLSVTPGQPASISCRSSQSLVHSNGNTFLHWYLQKPGQSPQLLIYTVSNRFSGVPDRFSGSGSGTDFTLKISRVEAEDVGVYFCSQTTHVPWTFGGGTKVEIKR",0.09,2.5,0.00593,2.4e+06
"P1AE0993, humanized anti-CD40 antibody VH1a/VL1c, huIgG1_LALA_PG (antibody, V domains shown, huIgG1 with effector silent Fc (P329G, L234A, L235A)) VH: QVQLVQSGAEVKKPGASVKVSCKASGYSFTGYYIHWVRQAPGQSLEWMGRVIPNAGGTSYNQKFKGRVTLTVDKSISTAYMELSRLRSDDTAVYYCAREGIYWWGQGTTVTVSS VL: DVVVTQTPLSLSVTPGQPASISCRSSQSLVHSNGNTFLHWYLQKPGQSPQLLIYTVSNRFSGVPDRFSGSGSGTDFTLKISRVEAEDVGVYFCSQTTHVPWTFGGGTKVEIK",0.13,3.4,0.00898,2.68e+06
"P1AE0818, humanized anti-CD40 antibody VH1c/VL1c, huIgG1_LALA_PG (antibody, V domains shown, huIgG1 with effector silent Fc (P329G, L234A, L235A)) VH: QVQLVQSGAEVKKPGASVKVSCKASGYSFTGYYIHWVRQAPGQSLEWMGRVIPNAGGTSYNQKFKGRVTLTVDKSISTAYMELSRLRSDDTAVYYCAREGIYWWGHGTTVTVSS VL: DVVVTQTPLSLSVTPGQPASISCRSSQSLVHSNGNTFLHWYLQKPGQSPQLLIYTVSNRFSGVPDRFSGSGSGTDFTLKISRVEAEDVGVYFCSQTTHVPWTFGGGTKVEIK",0.14,3.2,0.00847,2.63e+06
"P1AE1002, humanized anti-CD40 antibody VH1b/VL1a, huIgG1_LALA_PG (antibody, V domains shown, huIgG1 with effector silent Fc (P329G, L234A, L235A)) VH: QVQLVQSGAEVKKPGASVKVSCKASGYSFTGYYIHWVRQAPGKSLEWMGRVIPNAGGTSYNQKFKGRVTLTVDKSISTAYMELSRLRSDDTAVYYCAREGIYWWGQGTTVTVSS VL: DIVMTQTPLSLSVTPGQPASISCRSSQSLVHSNGNTFLHWYLQKPGQSPQLLIYTVSNRFSGVPDRFSGSGSGTDFTLKISRVEAEDVGVYFCSQTTHVPWTFGGGTKVEIK",0.13,2.2,0.00557,2.54e+06
"P1AE1000, humanized anti-CD40 antibody VH1d/VL1c, huIgG1_LALA_PG (antibody, V domains shown, huIgG1 with effector silent Fc (P329G, L234A, L235A)) VH: QVQLVQSGAEVKKPGASVKVSCKASGYSFTGYYIHWVRQAPGQSLEWMGRVIPNAGGTSYNQKFKGRVTLSVDKSISTAYMELSRLRSDDTAVYYCAREGIYWWGQGTTVTVSS VL: DVVVTQTPLSLSVTPGQPASISCRSSQSLVHSNGNTFLHWYLQKPGQSPQLLIYTVSNRFSGVPDRFSGSGSGTDFTLKISRVEAEDVGVYFCSQTTHVPWTFGGGTKVEIK",0.14,3.2,0.00862,2.68e+06
"P1AE1001, humanized anti-CD40 antibody VH1a/VL1b, huIgG1_LALA_PG (antibody, V domains shown, huIgG1 with effector silent Fc (P329G, L234A, L235A)) VH: QVQLVQSGAEVKKPGASVKVSCKASGYSFTGYYIHWVRQAPGQSLEWMGRVIPNAGGTSYNQKFKGRVTLTVDKSISTAYMELSRLRSDDTAVYYCAREGIYWWGQGTTVTVSS VL: DIVVTQTPLSLSVTPGQPASISCRSSQSLVHSNGNTFLHWYLQKPGQSPQLLIYTVSNRFSGVPDRFSGSGSGTDFTLKISRVEAEDVGVYFCSQTTHVPWTFGGGTKVEIK",0.08,2.7,0.00681,2.56e+06
"P1AE0999, humanized anti-CD40 antibody VH1d/VL1a, huIgG1_LALA_PG (antibody, V domains shown, huIgG1 with effector silent Fc (P329G, L234A, L235A)) VH: QVQLVQSGAEVKKPGASVKVSCKASGYSFTGYYIHWVRQAPGQSLEWMGRVIPNAGGTSYNQKFKGRVTLSVDKSISTAYMELSRLRSDDTAVYYCAREGIYWWGQGTTVTVSS VL: DIVMTQTPLSLSVTPGQPASISCRSSQSLVHSNGNTFLHWYLQKPGQSPQLLIYTVSNRFSGVPDRFSGSGSGTDFTLKISRVEAEDVGVYFCSQTTHVPWTFGGGTKVEIK",0.15,2.4,0.00592,2.45e+06
"P1AE0998, humanized anti-CD40 antibody VH1c/VL1d, huIgG1_LALA_PG (antibody, V domains shown, huIgG1 with effector silent Fc (P329G, L234A, L235A)) VH: QVQLVQSGAEVKKPGASVKVSCKASGYSFTGYYIHWVRQAPGQSLEWMGRVIPNAGGTSYNQKFKGRVTLTVDKSISTAYMELSRLRSDDTAVYYCAREGIYWWGHGTTVTVSS VL: DVVVTQTPLSLSVTPGQPASISCRSSQSLVHSNGNTFLHWYLQKPGQSPQLLIYTVSNRFSGVPDRFSGSGSGTDFTLKISRVEAEDVGVYFCSQTTHVPWTFGGGTKLEIK",0.12,3.3,0.00896,2.7e+06
"P1AE0996, humanized anti-CD40 antibody VH1a/VL1d, huIgG1_LALA_PG (antibody, V domains shown, huIgG1 with effector silent Fc (P329G, L234A, L235A)) VH: QVQLVQSGAEVKKPGASVKVSCKASGYSFTGYYIHWVRQAPGQSLEWMGRVIPNAGGTSYNQKFKGRVTLTVDKSISTAYMELSRLRSDDTAVYYCAREGIYWWGQGTTVTVSS VL: DVVVTQTPLSLSVTPGQPASISCRSSQSLVHSNGNTFLHWYLQKPGQSPQLLIYTVSNRFSGVPDRFSGSGSGTDFTLKISRVEAEDVGVYFCSQTTHVPWTFGGGTKLEIK",0.12,3.5,0.00908,2.59e+06
"P1AE0819, humanized anti-CD40 antibody VH1d/VL1d, huIgG1_LALA_PG (antibody, V domains shown, huIgG1 with effector silent Fc (P329G, L234A, L235A)) VH: QVQLVQSGAEVKKPGASVKVSCKASGYSFTGYYIHWVRQAPGQSLEWMGRVIPNAGGTSYNQKFKGRVTLSVDKSISTAYMELSRLRSDDTAVYYCAREGIYWWGQGTTVTVSS VL: DVVVTQTPLSLSVTPGQPASISCRSSQSLVHSNGNTFLHWYLQKPGQSPQLLIYTVSNRFSGVPDRFSGSGSGTDFTLKISRVEAEDVGVYFCSQTTHVPWTFGGGTKLEIK",0.11,3.4,0.00877,2.59e+06
"P1AE0997, humanized anti-CD40 antibody VH1c/VL1a, huIgG1_LALA_PG (antibody, V domains shown, huIgG1 with effector silent Fc (P329G, L234A, L235A)) VH: QVQLVQSGAEVKKPGASVKVSCKASGYSFTGYYIHWVRQAPGQSLEWMGRVIPNAGGTSYNQKFKGRVTLTVDKSISTAYMELSRLRSDDTAVYYCAREGIYWWGHGTTVTVSS VL: DIVMTQTPLSLSVTPGQPASISCRSSQSLVHSNGNTFLHWYLQKPGQSPQLLIYTVSNRFSGVPDRFSGSGSGTDFTLKISRVEAEDVGVYFCSQTTHVPWTFGGGTKVEIK",0.12,2.3,0.00603,2.59e+06
"P1AE0400, humanized anti-CD40 antibody VH2a/VL2a, huIgG1_LALA_PG (antibody, V domains shown, also called VL2a/VH2a) VH: EVQLLESGGGLVQPGGSLRLSCAASGYSFTGYYIHWVRQAPGKGLEWVGRVIPNAGGTSYNQKFKGRFTISVDNSKNTAYLQMNSLRAEDTAVYYCAREGIYWWGQGTTVTVSS VL: DIQMTQSPSSLSASVGDRVTITCRSSQSLVHSNGNTFLHWYQQKPGKAPKLLIYTVSNRFSGVPSRFSGSGSGTDFTLTISSLQPEDFATYFCSQTTHVPWTFGGGTKVEIKR",0.12,4.2,0.00699,1.68e+06
"P1AE0404, humanized anti-CD40 antibody VH2a/VL2b, huIgG1_LALA_PG (antibody, V domains shown, huIgG1 with effector silent Fc (P329G, L234A, L235A); also called VL2b/VH2a) VH: EVQLLESGGGLVQPGGSLRLSCAASGYSFTGYYIHWVRQAPGKGLEWVGRVIPNAGGTSYNQKFKGRFTISVDNSKNTAYLQMNSLRAEDTAVYYCAREGIYWWGQGTTVTVSS VL: DIQMTQSPSSLSASVGDRVTITCRSSQSLVHSNGNTFLHWYQQKPGQSPKLLIYTVSNRFSGVPSRFSGSGSGTDFTLTISSLQPEDFATYFCSQTTHVPWTFGGGTKVEIK",0.11,4.2,0.00693,1.63e+06
"P1AE0402, humanized anti-CD40 antibody VH2c/VL2a, huIgG1_LALA_PG (antibody, V domains shown, huIgG1 with effector silent Fc (P329G, L234A, L235A); also called VL2a/VH2c) VH: EVQLLESGGGLVQPGGSLRLSCAASGYSFTGYYIHWVRQAPGKGLEWVGRVIPNAGGTSYNQKFKGRFTISVDNSKNTAYLQMNSLRAEDTAVYYCAREGIYWWGHGTTVTVSS VL: DIQMTQSPSSLSASVGDRVTITCRSSQSLVHSNGNTFLHWYQQKPGKAPKLLIYTVSNRFSGVPSRFSGSGSGTDFTLTISSLQPEDFATYFCSQTTHVPWTFGGGTKVEIK",0.13,4.2,0.00709,1.67e+06
"P1AE0407, humanized anti-CD40 antibody VH2d/VL2b, huIgG1_LALA_PG (antibody, V domains shown, huIgG1 with effector silent Fc (P329G, L234A, L235A); also called VL2b/VH2d) VH: EVQLLESGGGLVQPGGSLRLSCAASGYSFTGYYIHWVRQAPGKGLEWVGRVIPNAGGTSYGDSVKGRFTISVDNSKNTAYLQMNSLRAEDTAVYYCAREGIYWWGQGTTVTVSS VL: DIQMTQSPSSLSASVGDRVTITCRSSQSLVHSNGNTFLHWYQQKPGQSPKLLIYTVSNRFSGVPSRFSGSGSGTDFTLTISSLQPEDFATYFCSQTTHVPWTFGGGTKVEIK",0.12,30,0.0355,1.19e+06
"P1AE0405, humanized anti-CD40 antibody VH2b/VL2b, huIgG1_LALA_PG (antibody, V domains shown, huIgG1 with effector silent Fc (P329G, L234A, L235A); also called VL2b/VH2b) VH: EVQLLESGGGLVQPGGSLRLSCAASGYSFTGYYIHWVRQAPGKSLEWVGRVIPNAGGTSYNQKFKGRFTISVDNSKNTAYLQMNSLRAEDTAVYYCAREGIYWWGQGTTVTVSS VL: DIQMTQSPSSLSASVGDRVTITCRSSQSLVHSNGNTFLHWYQQKPGQSPKLLIYTVSNRFSGVPSRFSGSGSGTDFTLTISSLQPEDFATYFCSQTTHVPWTFGGGTKVEIK",0.09,5.1,0.00814,1.61e+06
"P1AE0403, humanized anti-CD40 antibody VH2d/VL2a, huIgG1_LALA_PG (antibody, V domains shown, also called VL2a/VH2d) VH: EVQLLESGGGLVQPGGSLRLSCAASGYSFTGYYIHWVRQAPGKGLEWVGRVIPNAGGTSYGDSVKGRFTISVDNSKNTAYLQMNSLRAEDTAVYYCAREGIYWWGQGTTVTVSS VL: DIQMTQSPSSLSASVGDRVTITCRSSQSLVHSNGNTFLHWYQQKPGKAPKLLIYTVSNRFSGVPSRFSGSGSGTDFTLTISSLQPEDFATYFCSQTTHVPWTFGGGTKVEIKR",0.12,29,0.0407,1.4e+06
"P1AE0406, humanized anti-CD40 antibody VH2c/VL2b, huIgG1_LALA_PG (antibody, V domains shown, huIgG1 with effector silent Fc (P329G, L234A, L235A); also called VL2b/VH2c) VH: EVQLLESGGGLVQPGGSLRLSCAASGYSFTGYYIHWVRQAPGKGLEWVGRVIPNAGGTSYNQKFKGRFTISVDNSKNTAYLQMNSLRAEDTAVYYCAREGIYWWGHGTTVTVSS VL: DIQMTQSPSSLSASVGDRVTITCRSSQSLVHSNGNTFLHWYQQKPGQSPKLLIYTVSNRFSGVPSRFSGSGSGTDFTLTISSLQPEDFATYFCSQTTHVPWTFGGGTKVEIK",0.09,4.2,0.00709,1.67e+06
"P1AE0401, humanized anti-CD40 antibody VH2b/VL2a, huIgG1_LALA_PG (antibody, V domains shown, huIgG1 with effector silent Fc (P329G, L234A, L235A); also called VL2a/VH2b) VH: EVQLLESGGGLVQPGGSLRLSCAASGYSFTGYYIHWVRQAPGKSLEWVGRVIPNAGGTSYNQKFKGRFTISVDNSKNTAYLQMNSLRAEDTAVYYCAREGIYWWGQGTTVTVSS VL: DIQMTQSPSSLSASVGDRVTITCRSSQSLVHSNGNTFLHWYQQKPGKAPKLLIYTVSNRFSGVPSRFSGSGSGTDFTLTISSLQPEDFATYFCSQTTHVPWTFGGGTKVEIK",0.13,4.6,0.00787,1.69e+06
